25 sequences from the supplement of paper PMC9732359 can be followed below.

± gives the uncertainty stated by the source.

The data set in a line: protein stability index of a GFP-peptide fusion (yeast GPS) (PSI 1-4); higher = more stable; sorted into four equal gates, so the index is relative within each strain. In short, it runs like this:
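Tiled yeast protein peptides of 17 residues were each joined downstream of GFP, on plasmids that also express Cherry. The pooled library was maintained in yeast, and mid-log cultures in leucine-free medium were sorted into four equal gates on the GFP/Cherry ratio. Plasmids from every gate were amplified by PCR and sequenced on Illumina, with barcodes linking reads to strains. The protein stability index of a peptide is its gate-number-weighted read frequency summed over the gates.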

For FGVTKARWPAKSVKFVQ [RPL17A], the protein stability index is 2.63 ± 0.088 (doa10∆), 2.51 ± 0.077 (pdr5∆), 2.55 ± 0.069 (san1∆) and 3.05 ± 0.059 (ubr1∆).
For TIPILESDSKATLQSNE [DSN1], the protein stability index worked out at 2.8 ± 0.12 (doa10∆), 2.16 ± 0.11 (pdr5∆), 2.36 ± 0.16 (san1∆) and 2.67 ± 0.081 (ubr1∆).
The corresponding values for GPSATDPETTATQKESL [RGR1] are 2.43 ± 0.062, 2.87 ± 0.071, 1.66 ± 0.11 and 2.21 ± 0.048.
The corresponding values for AKQAKIRAGEFDVVLTT [SNF2] are 3.56 ± 0.11, 3.3 ± 0.13, 2.57 ± 0.12 and 3.23 ± 0.11.
TVYSSEQYIQELDKRED [SMC3]: the protein stability index runs as follows: (doa10∆) 2.76 ± 0.18; (pdr5∆) 3.26 ± 0.24; (ubr1∆) 3.47 ± 0.25.
In turn, HSRILPKKALKVKAGVR [RRP43] gave a protein stability index (doa10∆) of 1.73 ± 0.046, a protein stability index (pdr5∆) of 1.63 ± 0.054, a protein stability index (san1∆) of 1.57 ± 0.082 and a protein stability index (ubr1∆) of 1.6 ± 0.032.
The corresponding values for PDLDTECFISMQSTSPA [SWI1] are 2.68 ± 0.18, 3.02 ± 0.13, 2.32 ± 0.17 and 2.93 ± 0.07.
For FITRLAQGLLHLGKGTM [RPN1], in that order: 2.9 ± 0.086, 2.99 ± 0.091, 2.3 ± 0.14 and 2.23 ± 0.074.
Consider NDVTNKNINIGKHSQEQ [SIR4], for which the protein stability index came to 2.26 ± 0.052 (doa10∆), 2.46 ± 0.047 (pdr5∆), 2.81 ± 0.045 (san1∆) and 2.5 ± 0.041 (ubr1∆).
On to NIQHLLYGKRFFPYYVH [PRE7], for which the protein stability index runs as follows: (doa10∆) 1.25 ± 0.031; (pdr5∆) 1.45 ± 0.037; (san1∆) 1.36 ± 0.091; (ubr1∆) 1.3 ± 0.039.
For LTEAVEDGPRPFKVFLD [RPL5], in that order: 3.03 ± 0.071, 3.11 ± 0.061, 3.02 ± 0.052 and 3.23 ± 0.036.
Take IKNVQDLLILTRSIKEK [SRB6]: the protein stability index was found to be 1.34 ± 0.11 (doa10∆), 1.31 ± 0.13 (pdr5∆) and 1.76 ± 0.2 (ubr1∆).
For SSLSFGPENALNVYHYF [YJL039C/NUP192], the protein stability index (doa10∆) came to 1.94 ± 0.031, the protein stability index (pdr5∆) came out at 2.11 ± 0.038, the protein stability index (san1∆) was found to be 2.04 ± 0.05 and the protein stability index (ubr1∆) came out at 2.67 ± 0.029.
For VEHLLRDVRDQAAGGLS [RPN8], in that order: 2.7 ± 0.13, 1.99 ± 0.17, 2.81 ± 0.17 and 1.07 ± 0.12.
For ALKDPQTDADRVKDPQW [RIP1], in that order: 3.26 ± 0.081, 3.68 ± 0.23, 3.18 ± 0.25 and 3.6 ± 0.16.
On to VVIEKRRKKILNEIELD [GRR1], for which the protein stability index reads like this: (doa10∆) 2.03 ± 0.14; (pdr5∆) 2.77 ± 0.1; (san1∆) 2.05 ± 0.17; (ubr1∆) 2.96 ± 0.054.
For TIYNNIREGQNQKIPDN [SIR3], in that order: 2.96 ± 0.05, 3.18 ± 0.064, 2.98 ± 0.056 and 3.02 ± 0.045.
The corresponding values for LVDVMTTQGGLTSVTRH [RPO21] are 2.14 ± 0.1, 2.38 ± 0.072, 2.1 ± 0.09 and 2.3 ± 0.069.
Take ITKVTENLFSKEEVCQG [YMR129W/POM152]: the protein stability index runs as follows: (doa10∆) 2.95 ± 0.085; (pdr5∆) 2.77 ± 0.092; (san1∆) 2.97 ± 0.074; (ubr1∆) 3.06 ± 0.082.
For VEKGVNPTKSKEILDNI [ECM29], in that order: 3.26 ± 0.14, 3.5 ± 0.12, 3.37 ± 0.25 and 3.62 ± 0.14.
The corresponding values for EIVWTSSLIKAGLDKGI [RPO31] are 1.92 ± 0.047, 1.96 ± 0.061, 2.54 ± 0.05 and 1.57 ± 0.057.
For HLERNRKDKDAKFRLIL [RPS13], in that order: 3.22 ± 0.12, 3.06 ± 0.13, 3.38 ± 0.24 and 3.52 ± 0.2.
With NVEEEQIVPYIEKLTDG [BRR2], the protein stability index reads like this: (doa10∆) 3.05 ± 0.061; (pdr5∆) 3.06 ± 0.06; (san1∆) 2.91 ± 0.071; (ubr1∆) 3.2 ± 0.061.
For the sequence SNTSTSKMLDAASSQVS [SNF12], the protein stability index turned out to be 2.51 ± 0.052 (doa10∆), 2.8 ± 0.042 (pdr5∆), 2.5 ± 0.12 (san1∆) and 2.83 ± 0.051 (ubr1∆).
For KHLEDNTLLVTGPFKVN [RPL6B], in that order: 3.03 ± 0.18, 2.53 ± 0.16, 3.08 ± 0.093 and 1.78 ± 0.072.
